Experimental data taken from patent publication US20250144178A1, “PHARMACEUTICAL COMPOSITION FOR CANCER TREATMENT COMPRISING FUSION PROTEIN INCLUDING IL-12 AND ANTI-FAP ANTIBODY AND ANTICANCER AGENT” (KANAPH THERAPEUTICS INC., priority 2022, published 2025).
Like-named read-outs stand apart in the source and are kept apart here.

Legend:
[1] = test system: mouse FAP overexpressing B16F10 melanoma; test: Melanoma model, mouse FAP overexpressing B16F10; type: in vivo, C57BL/6J mice; conditions: during the test period
Procedure: In order to identify the anticancer effect through immune activation of the fusion protein, mouse FAP was overexpressed in the mouse melanoma cell line B16F10, which is known to have little immune cell infiltration, and then transplanted into C57BL/6J mice, and the tumor growth inhibitory ability was evaluated.
Specifically, the cells in culture were resuspended in Hanks' Balanced salt solution (HBSS, Gibco), and then 100 μl of 1×10^6 tumor cells per each mouse were transplanted into the subcutaneous region of the left the dorsal flank side of 6-week-old C57BL/6J mice.
(§1) Next, for drug efficacy evaluation, when the size of the tumor reached 70 to 100 mm^3, the mice were randomly divided into groups. As the control, PBS was administered, and as the test group, T1.03m was intravenously administered once at a dose of 10 μg and 100 μg.

[2] = molecular target: T1, recombinant mouse FAP (Mus musculus, UniProt P97321); test: Surface plasmon resonance binding to recombinant mouse FAP; conditions: SPR, 2 μg/ml protein, FIGS. 13 and 14
T1 sequence (P97321 1-761): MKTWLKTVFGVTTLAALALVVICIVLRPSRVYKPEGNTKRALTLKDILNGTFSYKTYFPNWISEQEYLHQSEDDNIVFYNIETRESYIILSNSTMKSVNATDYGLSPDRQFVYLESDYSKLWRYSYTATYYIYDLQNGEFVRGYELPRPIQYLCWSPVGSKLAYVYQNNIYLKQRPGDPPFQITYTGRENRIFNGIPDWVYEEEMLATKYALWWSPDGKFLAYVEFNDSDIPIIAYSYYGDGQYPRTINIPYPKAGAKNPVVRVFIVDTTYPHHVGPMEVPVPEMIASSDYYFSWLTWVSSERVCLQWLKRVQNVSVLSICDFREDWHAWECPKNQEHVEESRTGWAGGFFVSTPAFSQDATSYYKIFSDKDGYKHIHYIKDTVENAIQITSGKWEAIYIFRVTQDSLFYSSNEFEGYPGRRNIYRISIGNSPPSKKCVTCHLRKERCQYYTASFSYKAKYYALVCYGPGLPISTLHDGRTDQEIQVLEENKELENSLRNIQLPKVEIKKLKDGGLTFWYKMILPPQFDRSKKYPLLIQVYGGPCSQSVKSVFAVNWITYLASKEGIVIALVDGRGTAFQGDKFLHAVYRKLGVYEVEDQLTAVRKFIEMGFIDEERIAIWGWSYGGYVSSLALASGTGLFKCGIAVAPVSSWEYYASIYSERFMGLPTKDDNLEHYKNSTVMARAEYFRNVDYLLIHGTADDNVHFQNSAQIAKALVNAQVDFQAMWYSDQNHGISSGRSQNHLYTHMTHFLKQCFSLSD
Procedure: The surface of the CM5 chip was activated with a 1:1 mixture of […] (N-hydroxysuccinimide) and […] (1-Ethyl-3-(3-dimethylaminopropyl) carbodiimide), and 25 μg/ml of anti-mouse IgG (Fc) antibody was immobilized for 400 seconds at a rate of 10 μl/min. The remaining active ester groups were blocked with 1 M ethanolamine. T1.01m, T1.02m and T1.03m were diluted to 2 μg/ml and reacted on the CM5 chip immobilized with the anti-mouse IgG (Fc) antibody. The recombinant mouse FAP was diluted to 200 nM in 1×HBS-EP+buffer solution and diluted by serial dilution. The diluted recombinant mouse FAP was reacted at a rate of 30 μl/min. The association and dissociation times were 180 seconds and 400 seconds, respectively. After the dissociation, stabilization was performed for 60 seconds, and then a regeneration was performed for 30 seconds with a 10 mM glycine pH 1.5 solution at a rate of 30 μl/min.

[3] = test system: LLC1 lung cancer with NIH-3T3 overexpressing FAP; test: Cancer targeting efficacy, LLC1 co-injected with FAP overexpressing NIH-3T3; type: in vivo, mouse; conditions: FIG. 32
Excerpt: In order to compare the anticancer efficacy according to the cancer targeting of the dual antibody-type fusion protein in which the anti-FAP sequence structure and the IL-12 sequence structure form a Knob-in-Hole structure, the tumor growth inhibitory ability was identified in an animal model co-injected with NIH-3T3 cell overexpressing FAP, a mouse fibroblast cell line, and LLC1, a mouse lung cancer cell line, in a 1:1 ratio.
Specifically, for drug efficacy evaluation, when the size of the tumor reached 70 to 100 mm^3, the mice were randomly divided into groups. As the control, PBS was intraperitoneally administered twice a week. The group administered with T1.16m or T1.17m alone, the group administered with T1.16m and T1.17m in combination (T1.16m+T1.17m), and the group administered with T1.03m were used as test groups to evaluate the tumor growth inhibitory ability. T1.16m and T1.17m, which are dimers of anti-FAP and IL-12, respectively, were intraperitoneally administered twice a week at a dose of 0.01 μg, and T1.03m, which is a monomer fusion protein, was intraperitoneally administered twice a week at a dose of 0.02 μg to observe the tumor growth inhibitory ability.

[4] = test system: FAP-overexpressing mouse colorectal cancer CT26; test: Tumor growth inhibition by IL-12 mutation, FAP-overexpressing CT26, single i.v. dose; type: in vivo, BALB/c mice; conditions: 10 μg i.v. once, FIG. 28
Procedure: In order to evaluate the change in IL-12 activity according to the presence and extent of amino acid mutation, FAP-overexpressing mouse colorectal cancer CT26 was prepared by resuspending in PBS at a concentration of 5×10^5 cells/100 μl, and the tumor growth inhibitory ability was evaluated in a tumor animal model prepared by transplantation of the cells into 5-week-old female BALB/c mice.
Specifically, when the size of the tumor in the model reached 100 mm^3, the mice were randomly divided into groups. 100 μl of phosphate buffered saline (PBS) was administered once via tail vein injection of the control, and each of T1.01m, T1.02m and T1.03m was intravenously administered once at a dose of 10 μg.

[5] = test system: FAP-overexpressing mouse colorectal cancer cell line CT26 cells; test: Single administration of T1.03m in FAP-overexpressing CT26 model; type: in vivo, BALB/c mice
Procedure: Specifically, the tumor cells were transplanted into the right dorsal flank side of 6-week-old BALB/c mice, and when the size of the tumor of the animal model reached 70 to 100 mm^3, the mice were randomly divided into groups and the administration was performed. As the control, PBS was administered, and as the test group, 100 μl of T1.03m was intravenously administered once at a dose of 2 μg, 10 μg and 100 μg. The size of the tumor was measured in the same manner as in Example 4.1.

[6] = test system: HEK-Blue IL-12 cells; test: Signaling ability in IL-12 recognizing cells (STAT4 inducible SEAP reporter); type: cell-based, human; conditions: serial dilution from 4 nM, 24 hours, FIG. 18
Procedure: The HEK-Blue IL-12 cell line transformed with the IL-12 receptor gene and the STAT4 inducible SEAP reporter gene into HEK293 cells, which are human embryonic kidney fibroblasts, was obtained from Invivogen (San Diego, USA). The HEK-Blue IL-12 cells were maintained in DMEM (GIBCO) containing 10% FBS (GIBCO), 100 μg/ml Normocin and 1×HEK-Blue selection.
Specifically, the HEK-Blue IL-12 cell line, which is an IL-12 recognizing cell, was diluted to 2.8×10^5 cells/ml and dispensed at 180 μl/well. Recombinant human IL-12, T1.01m, T1.02m, T1.03m and T1.12m were suspended at 4 nM and diluted by serial dilution. HEK-Blue IL-12 cells were treated with the diluted recombinant human IL-12, T1.01m, T1.02m, T1.03m and T1.12m. After 24 hours of treatment, the cell supernatant was collected and mixed with QUANTI-Blue Solution (Invivogen) in a 96-well plate. The reporter expression level was measured at 620 nm using a spectrophotometer (Thermo Fisher).

[7] = test system: LLC1 lung cancer with NIH-3T3 overexpressing FAP; type: in vivo, C57BL/6J mice
Procedure: Specifically, the NIH-3T3 cell line overexpressing FAP and the LLC1 cells were resuspended in Hanks' Balanced salt solution (HBSS, Gibco) at a concentration of 1×10^6 cells/50 μl, respectively, and the cells were mixed in a 1:1 ratio, and then 100 μl per each mouse was transplanted into the subcutaneous region of the right flank of 6-week-old C57BL/6J mice using a 1 cc syringe (25G).
as §1

B1: T1.03m: K&H bispecific: anti-mu FAP/mu IL-12 mut2, mu IgG2a DANG (seq18, seq19, seq22) (antibody)
heavy: QVQLQQSGAELARPGASVNLSCKASGYTFTNNGINWLKQRTGQGLEWIGEIYPRSTNTLYNEKFKGKATLTADRSSNTAYMELRSLTSEDSAVYFCARTLTAPFAFWGQGTLVTVSAAKTTAPSVYPLAPVCGDTTGSSVTLGCLVKGYFPEPVTLTWNSGSLSSGVHTFPAVLQSDLYTLSSSVTVTSSTWPSQSITCNVAHPASSTKVDKKIEPRGPTIKPCPPCKCPAPNLLGGPSVFIFPPKIKDVLMISLSPIVTCVVVAVSEDDPDVQISWFVNNVEVHTAQTQTHREDYGSTLRVVSALPIQHQDWMSGKEFKCKVNNKDLPAPIERTISKPKGSVRAPQVYVLPPPEEEMTKKQVTLWCMVTDFMPEDIYVEWTNNGKTELNYKNTEPVLDSDGSYFMYSKLRVEKKNWVERNSYSCSVVHEGLHNHHTTKSFSRTPGK
light: QIVLTQSPAIMSASPGEKVTMTCSASSGVNFMHWYQQKSGTSPKRWIFDTSKLASGVPARFSGSGSGTSYSLTISSMEAEDAATYYCQQWSFNPPTFGGGTKLEIKRADAAPTVSIFPPSSEQLTSGGASVVCFLNNFYPKDINVKWKIDGSERQNGVLNSWTDQDSKDSTYSMSSTLTLTKDEYERHNSYTCEATHKTSTSPIVKSFNRNEC
chain: MWELEKDVYVVEVDWTPDAPGETVNLTCDTPEEDDITWTSDQRHGVIGSGKTLTITVKEFLDAGQYTCHKGGETLSHSHLLLHKKENGIWSTEILKNFKNKTFLKCEAPNYSGRFTCSWLVQRNMDLKFNIKSSSSSPDSRAVTCGMASLSAEKVTLDQRDYEKYSVSCQEDVTCPTAEETLPIELALEARQQNKYENYSTSFFIRDIIKPDPPKNLQMKPLKNSQVEVSWEYPDSWSTPHSYFSLKFFVRIQAAAEKMAETEEGCNQKGAFLVEKTSTEVQCKGGNVCVQAQDRYYNSSCSKWACVPCRVRSGGGGSGGGGSGGGGSRVIPVSGPARCLSQSRNLLKTTDDMVKTAREKLKHYSCTAEDIDHEDITRDQTSTLKTCLPLELHKNESCLATRETSSTTRGSCLPPQKTSLMMTLCLGSIYEDLKMYQTEFQAINAALQNHNHQQIILDKGMLVAIDELMQSLNHNGETLRQKPPVGEADPYRVKMKLCILLHAFSTRVVTINRVMGYLSSAGGGGSGGGGSEPRGPTIKPCPPCKCPAPNLLGGPSVFIFPPKIKDVLMISLSPIVTCVVVAVSEDDPDVQISWFVNNVEVHTAQTQTHREDYGSTLRVVSALPIQHQDWMSGKEFKCKVNNKDLPAPIERTISKPKGSVRAPQVYVLPPPEEEMTKKQVTLSCAVTDFMPEDIYVEWTNNGKTELNYKNTEPVLDSDGSYFMVSKLRVEKKNWVERNSYSCSVVHEGLHNHHTTKSFSRTPGK
change in body weight [1]: No change in body weight | Binding to recombinant mouse FAP [2]: may bind to recombinant mouse FAP to specifically target FAP | tumor growth inhibitory ability compared to the control ([3]; 0.02 μg i.p. twice a week, 10 days after administration, control PBS): excellent tumor growth inhibitory ability | tumor growth inhibitory ability compared with T1.16m or T1.17m alone and their combination ([3]; T1.03m 0.02 μg, T1.16m and T1.17m 0.01 μg, i.p. twice a week): excellent tumor growth inhibitory ability | tumor growth inhibitory ability compared to the control ([4]; 15 days after administration, control PBS): excellent tumor growth inhibitory ability | tumor growth inhibitory ability compared to the group administered with T1.01m [4]: reduced | tumor growth inhibitory ability compared to the control ([5]; 2 μg, 10 μg and 100 μg i.v. once, control PBS, FIG. 29): high tumor growth inhibitory ability | change in body weight ([5]; during the test period): No change in body weight | IL-12 recognition / STAT4 reporter gene expression (620 nm absorbance) [6]: IL-12 was recognized, and STAT4 expressed a reporter gene by inducing phosphorylation | tumor growth inhibitory ability compared to the control ([7]; 10 μg or 100 μg i.v. once, control PBS, FIG. 31): excellent tumor growth inhibitory ability | change in body weight ([7]; mouse, in vivo): No change in body weight
